Assay results as given in article PMC9129083.

What follows are binders tested against Pst_A23 (Puccinia striiformis f. sp. tritici, UniProt A0A0L0VHF6 =M+36-181, internal_change) (assay: EMSA).

Row | Binder | binding result
1 | UUUCCCUAAAGUUUCUUACAAUGAUCUGGUUGAAGCAACAAAG (ssRNA) [TaXa21-RNA] | binds
2 | GAAGAAGAAGAGAAGACCUGAAGA (ssRNA) [M1-RNA] | binds
3 | AACUUCUUCUUUACUUCCUUUCCU (ssRNA) [M2-RNA] | binds
4 | AGGAGGCAAGGACCCACCUAGGCA (ssRNA) [M1-m-RNA] | no binding
5 | ACUUCUUCUUGUUGUUGCUCCUGCUGC (ssRNA) [TaWRKY53-RNA] | binds
